Where a chain is given by its changes, count along the chain named.

To fix the notation:
B1: PRT-29 (protein)
chain: MANQEIRYSEVTPYHVTSVWTKGVTPPANFTQGEDVFHAPYVANQGWYDITKTFNGKDDLLCGAATAGNMLHWWFDQNKDQIKRYLEEHPEKQKINFNGEQMFDVKEAIDTKNHQLDSKLFEYFKEKAFPYLSTKHLGVFPDHVIDMFINGYRLSLTNHGPTPVKEGSKDPRGGIFDAVFTRGDQSKLLTSRHDFKEKNLKEISDLIKQELTEGKALGLSHTYANVRINHVINLWGADFDSNGNLEAIYVTDSDSNASIGMKKYFVGVNSAGKVAISAKEIEEDNIGAQVLGLFTLSTGQDSWNQTN
B2: PRT-31 (protein)
chain: B1 chain with K83E, Q209K, E246K, E282K
B3: PRT-32 (protein)
chain: B1 chain with Q209K, E246K, E282K, S302I
B4: PRT-36 (protein)
chain: B1 chain with L116T, Q209K, E246K, E282K
B5: PRT-33 (protein)
chain: B1 chain with E87K, Q209K, E246K, E282K
B6: PRT-37 (protein)
chain: B1 chain with N199T, Q209K, E246K, E282K
B7: PRT-35 (protein)
chain: B1 chain with N113D, Q209K, E246K, E282K
B8: PRT-34 (protein)
chain: B1 chain with H114S, Q209K, E246K, E282K
B9: PRT-1 (protein)
chain: B1 chain with Q209K, E246K, E282K
B10: PRT-30 (protein)
chain: B1 chain with I145L, N199T, Q209K, N242E, E246K, E282K

The series concerns the target pooled human IgG.
Regarding B1, the Enzyme Activity Endpoint Assay: Fab′2 came out at 19 ng/µL, the Enzyme Activity Endpoint Assay: Fc was determined as 95 ng/µL, the Enzyme Activity Endpoint Assay: IgG amounted to 27 ng/µL and the Enzyme Activity Endpoint Assay: scIgG is 43 ng/µL.
The protein B2 displayed an Enzyme Activity Endpoint Assay: Fab′2 of 46 ng/µL, an Enzyme Activity Endpoint Assay: Fc of 126 ng/µL, an Enzyme Activity Endpoint Assay: IgG of 13 ng/µL and an Enzyme Activity Endpoint Assay: scIgG of 15 ng/µL.
The like results for B3 were, in that order, 48 ng/µL, 124 ng/µL, 14 ng/µL and 17 ng/µL.
The like results for B4 were, in that order, 48 ng/µL, 123 ng/µL, 15 ng/µL and 16 ng/µL.
Consider B5, for which the Enzyme Activity Endpoint Assay: Fab′2 was 26 ng/µL, the Enzyme Activity Endpoint Assay: Fc is 93 ng/µL, the Enzyme Activity Endpoint Assay: IgG is 17 ng/µL and the Enzyme Activity Endpoint Assay: scIgG came to 44 ng/µL.
The matching figures for B6: 4 ng/µL, 79 ng/µL, 23 ng/µL and 69 ng/µL.
In turn, B7 displayed an Enzyme Activity Endpoint Assay: Fab′2 of 37 ng/µL, an Enzyme Activity Endpoint Assay: Fc of 104 ng/µL, an Enzyme Activity Endpoint Assay: IgG of 9 ng/µL and an Enzyme Activity Endpoint Assay: scIgG of 14 ng/µL.
The matching figures for B8: 37 ng/µL, 95 ng/µL, 10 ng/µL and 14 ng/µL.
As to B9, the Enzyme Activity Endpoint Assay: Fab′2 was found to be 44 ng/µL, the Enzyme Activity Endpoint Assay: Fc came to 100 ng/µL, the Enzyme Activity Endpoint Assay: IgG was determined as 23 ng/µL and the Enzyme Activity Endpoint Assay: scIgG turned out to be 21 ng/µL.
The matching figures for B10: 3 ng/µL, 73 ng/µL, 21 ng/µL and 65 ng/µL.

Values taken from patent US20250027068.
